Measured values published in article doi:10.1101/2020.10.05.326918 (bioRxiv, 2020).

T1: MED15 (Mus musculus (endogenous in CH12 cells), UniProt Q924H2 1-789)
T1 sequence (looked up): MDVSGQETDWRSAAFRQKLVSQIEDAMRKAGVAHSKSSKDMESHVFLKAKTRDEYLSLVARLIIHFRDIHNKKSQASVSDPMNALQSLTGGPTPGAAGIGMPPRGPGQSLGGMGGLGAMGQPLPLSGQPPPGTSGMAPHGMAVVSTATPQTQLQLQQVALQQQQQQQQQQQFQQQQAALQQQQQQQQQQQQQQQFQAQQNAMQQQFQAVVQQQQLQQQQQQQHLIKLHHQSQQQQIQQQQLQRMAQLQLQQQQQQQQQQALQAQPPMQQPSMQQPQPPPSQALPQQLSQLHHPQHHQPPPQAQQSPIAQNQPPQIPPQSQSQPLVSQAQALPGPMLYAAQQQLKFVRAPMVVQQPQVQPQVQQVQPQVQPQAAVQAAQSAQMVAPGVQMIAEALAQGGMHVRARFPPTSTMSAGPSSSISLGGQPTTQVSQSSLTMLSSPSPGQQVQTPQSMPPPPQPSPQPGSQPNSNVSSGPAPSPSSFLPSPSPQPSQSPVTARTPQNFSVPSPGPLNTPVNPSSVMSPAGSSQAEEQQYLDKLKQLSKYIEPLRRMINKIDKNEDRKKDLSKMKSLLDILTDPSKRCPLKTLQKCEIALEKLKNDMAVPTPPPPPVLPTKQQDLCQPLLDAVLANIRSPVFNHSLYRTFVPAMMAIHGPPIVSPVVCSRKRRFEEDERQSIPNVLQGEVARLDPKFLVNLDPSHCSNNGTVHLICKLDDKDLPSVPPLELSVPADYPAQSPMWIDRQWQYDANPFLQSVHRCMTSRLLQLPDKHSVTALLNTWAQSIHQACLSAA

T2: MED16 (Mus musculus (endogenous in CH12 cells), UniProt Q6PGF3 1-828)
T2 sequence (looked up): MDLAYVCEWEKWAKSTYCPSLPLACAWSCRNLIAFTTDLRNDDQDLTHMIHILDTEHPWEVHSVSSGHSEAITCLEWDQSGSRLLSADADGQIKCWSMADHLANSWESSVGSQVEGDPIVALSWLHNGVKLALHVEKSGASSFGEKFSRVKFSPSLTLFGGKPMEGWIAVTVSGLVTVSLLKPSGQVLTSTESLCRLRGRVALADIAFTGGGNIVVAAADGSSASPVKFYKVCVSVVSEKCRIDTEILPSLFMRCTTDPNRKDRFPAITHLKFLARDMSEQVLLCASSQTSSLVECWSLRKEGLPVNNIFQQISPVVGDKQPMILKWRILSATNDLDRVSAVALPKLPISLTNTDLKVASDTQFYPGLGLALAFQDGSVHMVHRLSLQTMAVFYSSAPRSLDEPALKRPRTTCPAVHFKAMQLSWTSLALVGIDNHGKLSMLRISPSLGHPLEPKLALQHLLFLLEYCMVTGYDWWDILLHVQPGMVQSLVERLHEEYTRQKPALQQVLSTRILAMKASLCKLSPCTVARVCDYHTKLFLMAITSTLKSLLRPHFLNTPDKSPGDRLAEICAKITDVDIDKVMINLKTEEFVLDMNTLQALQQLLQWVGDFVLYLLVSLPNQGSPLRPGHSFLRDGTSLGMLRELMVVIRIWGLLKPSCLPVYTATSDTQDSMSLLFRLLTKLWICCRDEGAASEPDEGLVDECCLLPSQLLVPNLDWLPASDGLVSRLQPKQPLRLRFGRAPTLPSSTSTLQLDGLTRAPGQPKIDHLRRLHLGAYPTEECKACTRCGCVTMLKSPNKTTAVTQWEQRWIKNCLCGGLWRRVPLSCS

T3: MED22 (Mus musculus (endogenous in CH12 cells), UniProt Q62276 1-200)
T3 sequence (looked up): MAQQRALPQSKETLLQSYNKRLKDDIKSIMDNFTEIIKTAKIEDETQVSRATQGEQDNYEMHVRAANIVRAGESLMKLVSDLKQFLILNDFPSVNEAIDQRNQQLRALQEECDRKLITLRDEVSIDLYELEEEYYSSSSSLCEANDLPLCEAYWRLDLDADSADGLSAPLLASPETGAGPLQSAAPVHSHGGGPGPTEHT

B1: MED17 (natural protein, Mus musculus (endogenous in CH12 cells), UniProt Q8VCD5 1-649, looked up)
chain: MSGVRAVRISIESACEKQVQEVGLDGTETYLQPLSMSQNLARLAQRIDFSQGSGSEEEEAAGPDGDAPDWGGAGADQDDEEGLVKFQPSLWPWDSVRNNLRSALTEMCVLYDVLSIVRDKKFMTLDPVSQDALPPKQSPQTLQLISKKKSLAGAAQILLKGAERLTKSVAENQENKLQRDFNSELLRLRQHWKLRKVGDKILGDLSYRSAGSLFPHHGTFEVIKNTDIDLDKKIPEDYCPLDVQIPSDLEGSAYIKVSIQKQAPDIGDLGTVNLFKRPLPKSKPGSPHWQTKLEAAQNVLLCKEIFAQLSREAVQIKSQIPHIVVKNQIISQPFPSLQLSISLCHSSDDKKSQKCAAEKPGQEDHLYVLEHNLHLLIREFHKQTLSSIVMPHPASAPFGHKRMRLSGPQAFDKNEINSIQSTEGLLEKIIKQAKHIFLRSRTAATIDSLASRIEDPQIQAHWSNINDVYESSVKVLITSQGYEQICKSIQLQLNIGVEQVRVVHRDGRVIMLSHQEQELQDFLLSQMSQHQVHAVQQLAKVMGWQVLSFSNHVGLGPIESIGNASAITVASPSGDYAISVRNGPESGSKIMVQFPRNQCKDLPKSDVLQDSKWSHLRGPFKEVQWNKMEGRNFVYKMELLMSALSPCLL
B2: MED29 (natural protein, Mus musculus (endogenous in CH12 cells), UniProt Q9DB91 1-199, looked up)
chain: MAAPQPQAAAVSSASGVSGPGSAGGPGPQQQPQPTQLVGSAQSGLLQQQQQDFDPVQRYKMLIPQLKESLQTLMKVAAQNLIQNTNIDNGQKSSDAPLQRFDKCLEEFYALCDQLELCLRLAHECLSQSCDSAKHSPTLVPTATKPDAVQPDSLPYPQYLAVIKAQITCAKDIHTALLDCANKVTGKTTAPSTGPGGSL
B3: MED28 (natural protein, Mus musculus (endogenous in CH12 cells), UniProt Q920D3 1-178, looked up)
chain: MAASLGGMFTGQPPGPPPPPPGLPGQASLLQAAPGAPRPSNSTLVDELESSFEACFASLVSQDYVNGTDQEEIRTGVDQCIQKFLDIARQTECFFLQKRLQLSVQKPDQVIKEDVSELRSELQRKDALVQKHLTKLRHWQQVLEDINVQHKKPADMPQGSLAFLEQASANIPAPLKQT
B4: MED30 (natural protein, Mus musculus (endogenous in CH12 cells), UniProt Q9CQI9 1-178, looked up)
chain: MSTPPLAPTGMASGPFGGPQAQQAAREVNTATLCRIGQETVQDIVYRTMEIFQLLRNMQLPNGVTYHTGTYQDRLTKLQDHLRQLSILFRKLRLVYDKCNENCGGMDPIPVEQLIPYVDEDGSKNDDRAGPPRFASEERREIVEVNKKLKQKNQQLKQIMDQLRNLIWDINAMLAMRN
B5: MED27 (natural protein, Mus musculus (endogenous in CH12 cells), UniProt Q9DB40 1-311, looked up)
chain: MADVLSVGVNLEAFSQAISAIQALRSSVSRVFDCLKDGMRNKETLEGREKAFIANFQDNLHSVNRDLNELERLSNLVGKPSENHPLHNSGLLSLDPVQDKTPLYSQLLQAYKWSNKLQYHAGLASGLLNQQSLKRSANQMGVSAKRRPKAQPTTLVLPPQYVDDVISRIDRMFPEMSIHLSRPNGTSAMLLVTLGKVLKVIVVMRSLFIDRTIVKGYNESVYTEDGKLDIWSKSSYQVFQKVTDHATTALLHYQLPQMPDVVVRSFMTWLRSYIKLFQAPCQRCGKFLQDGLPPTWRDFRTLEAFHDTCRQ

Legend:
Experiment in all cases: cryo-EM structure
[1] = target: T1, MED15
[2] = target: MED14 (Mus musculus (endogenous in CH12 cells), UniProt A2ABV5 1-1459)
[3] = target: T2, MED16
[4] = target: B5
[5] = target: B2
[6] = target: T3, MED22
[7] = target: B4
[8] = target: B1

Measured: binding result

Chain of MED14 (A2ABV5 whole entry): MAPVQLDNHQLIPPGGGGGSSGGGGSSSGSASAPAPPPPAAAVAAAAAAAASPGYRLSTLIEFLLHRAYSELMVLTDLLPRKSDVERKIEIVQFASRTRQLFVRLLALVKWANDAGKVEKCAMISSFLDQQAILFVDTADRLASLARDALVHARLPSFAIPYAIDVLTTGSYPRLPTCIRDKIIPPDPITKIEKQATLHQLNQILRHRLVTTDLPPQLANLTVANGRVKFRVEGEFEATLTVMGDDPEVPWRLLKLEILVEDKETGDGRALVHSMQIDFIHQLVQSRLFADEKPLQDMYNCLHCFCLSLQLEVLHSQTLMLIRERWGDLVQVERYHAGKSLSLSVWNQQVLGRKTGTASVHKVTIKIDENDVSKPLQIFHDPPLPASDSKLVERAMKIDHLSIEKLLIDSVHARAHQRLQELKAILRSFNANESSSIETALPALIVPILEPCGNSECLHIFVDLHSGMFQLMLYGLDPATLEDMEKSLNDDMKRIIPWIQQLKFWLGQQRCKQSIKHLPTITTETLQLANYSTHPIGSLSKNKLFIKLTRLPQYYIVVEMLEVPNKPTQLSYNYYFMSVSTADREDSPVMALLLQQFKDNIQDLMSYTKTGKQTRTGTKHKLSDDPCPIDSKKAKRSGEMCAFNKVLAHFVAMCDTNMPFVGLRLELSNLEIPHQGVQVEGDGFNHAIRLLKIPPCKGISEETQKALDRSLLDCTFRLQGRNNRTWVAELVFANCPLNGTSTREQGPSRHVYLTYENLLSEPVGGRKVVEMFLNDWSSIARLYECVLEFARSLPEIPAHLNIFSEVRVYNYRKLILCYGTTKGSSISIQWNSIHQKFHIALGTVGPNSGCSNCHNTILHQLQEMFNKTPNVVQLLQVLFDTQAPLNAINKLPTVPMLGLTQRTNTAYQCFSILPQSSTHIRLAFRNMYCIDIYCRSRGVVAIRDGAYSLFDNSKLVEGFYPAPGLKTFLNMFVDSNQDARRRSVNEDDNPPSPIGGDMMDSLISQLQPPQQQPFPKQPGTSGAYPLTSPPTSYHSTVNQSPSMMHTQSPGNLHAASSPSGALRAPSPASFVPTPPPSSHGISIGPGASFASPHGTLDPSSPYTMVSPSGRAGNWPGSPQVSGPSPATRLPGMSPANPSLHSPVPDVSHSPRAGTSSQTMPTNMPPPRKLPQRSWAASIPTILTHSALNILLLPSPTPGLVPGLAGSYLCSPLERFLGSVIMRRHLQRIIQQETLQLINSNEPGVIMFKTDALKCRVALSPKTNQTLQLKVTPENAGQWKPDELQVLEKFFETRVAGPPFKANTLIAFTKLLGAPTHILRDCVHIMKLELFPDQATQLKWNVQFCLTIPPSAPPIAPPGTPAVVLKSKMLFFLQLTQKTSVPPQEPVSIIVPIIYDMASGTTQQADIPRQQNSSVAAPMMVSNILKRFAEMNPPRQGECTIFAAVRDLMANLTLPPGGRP

B1
binds: [1] | [2]

B2
binds: [1] | [2] | [3] | [4]

B3
binds: [5] | [6] | [7] | [4]

B4
binds: [5] | [6] | [4]

B5
binds: [8] | [1] | [2] | [3]
